Laboratory results: the supplement of paper PMC10065799, “High-throughput profiling of sequence recognition by tyrosine kinases and SH2 domains using bacterial peptide display” (eLife, 2023)

What was measured:
SHP2-C SH2 = test: SH2 binding enrichment of the phosphorylated peptide, bacterial display (enrichment ratio); higher = better substrate or ligand; peptides without Tyr show the background
Grb2 SH2 = Grb2 SH2 (UniProt P62993); test: as above
c-Src SH2 = test: as above
Fes = Fes (UniProt P07332); test: phosphorylation enrichment, bacterial display (enrichment ratio); higher = better substrate or ligand; peptides without Tyr show the background
Chain of Fes (P07332 whole entry, looked up): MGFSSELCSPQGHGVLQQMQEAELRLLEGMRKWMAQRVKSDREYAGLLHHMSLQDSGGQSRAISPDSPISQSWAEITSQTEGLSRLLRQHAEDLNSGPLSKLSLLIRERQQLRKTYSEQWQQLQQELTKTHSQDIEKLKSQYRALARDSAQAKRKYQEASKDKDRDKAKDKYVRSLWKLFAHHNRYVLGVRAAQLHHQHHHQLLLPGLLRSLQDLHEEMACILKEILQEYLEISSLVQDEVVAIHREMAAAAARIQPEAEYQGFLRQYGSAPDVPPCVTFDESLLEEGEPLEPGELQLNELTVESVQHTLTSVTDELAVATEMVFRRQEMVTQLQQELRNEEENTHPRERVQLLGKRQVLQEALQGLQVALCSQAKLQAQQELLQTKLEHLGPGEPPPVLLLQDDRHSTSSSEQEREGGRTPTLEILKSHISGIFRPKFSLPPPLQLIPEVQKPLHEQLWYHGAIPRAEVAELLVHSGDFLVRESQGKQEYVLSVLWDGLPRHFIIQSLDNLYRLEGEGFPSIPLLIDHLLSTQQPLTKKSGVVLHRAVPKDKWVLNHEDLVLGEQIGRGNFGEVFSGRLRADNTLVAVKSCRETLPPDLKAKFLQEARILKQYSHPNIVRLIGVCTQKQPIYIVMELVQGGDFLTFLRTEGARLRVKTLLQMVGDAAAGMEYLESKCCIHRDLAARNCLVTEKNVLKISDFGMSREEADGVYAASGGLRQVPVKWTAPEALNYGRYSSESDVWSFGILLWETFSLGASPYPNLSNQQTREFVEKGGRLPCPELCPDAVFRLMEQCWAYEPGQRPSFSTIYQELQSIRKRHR

Fer (mouse) = test: as above
AncSZ = test: as above
Hck = Hck (UniProt P08631); test: as above
Chain of Hck (P08631 whole entry, looked up): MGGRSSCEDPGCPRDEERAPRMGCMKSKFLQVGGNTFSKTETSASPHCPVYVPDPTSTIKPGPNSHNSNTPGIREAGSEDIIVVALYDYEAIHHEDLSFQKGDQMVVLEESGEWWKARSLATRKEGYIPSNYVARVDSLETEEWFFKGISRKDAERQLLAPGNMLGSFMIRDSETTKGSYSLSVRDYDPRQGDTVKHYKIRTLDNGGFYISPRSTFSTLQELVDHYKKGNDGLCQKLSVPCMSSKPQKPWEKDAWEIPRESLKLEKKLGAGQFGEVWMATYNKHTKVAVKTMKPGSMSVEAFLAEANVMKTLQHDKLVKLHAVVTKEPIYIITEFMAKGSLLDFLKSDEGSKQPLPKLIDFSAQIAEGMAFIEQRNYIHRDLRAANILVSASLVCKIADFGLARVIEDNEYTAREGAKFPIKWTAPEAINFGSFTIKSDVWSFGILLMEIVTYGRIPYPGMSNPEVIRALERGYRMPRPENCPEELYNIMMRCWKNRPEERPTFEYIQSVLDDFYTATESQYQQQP

EPHB2 = EPHB2 (UniProt P29323); test: as above
Jak2 = Jak2 (UniProt O60674); test: as above
Chain of Jak2 (O60674 whole entry, looked up): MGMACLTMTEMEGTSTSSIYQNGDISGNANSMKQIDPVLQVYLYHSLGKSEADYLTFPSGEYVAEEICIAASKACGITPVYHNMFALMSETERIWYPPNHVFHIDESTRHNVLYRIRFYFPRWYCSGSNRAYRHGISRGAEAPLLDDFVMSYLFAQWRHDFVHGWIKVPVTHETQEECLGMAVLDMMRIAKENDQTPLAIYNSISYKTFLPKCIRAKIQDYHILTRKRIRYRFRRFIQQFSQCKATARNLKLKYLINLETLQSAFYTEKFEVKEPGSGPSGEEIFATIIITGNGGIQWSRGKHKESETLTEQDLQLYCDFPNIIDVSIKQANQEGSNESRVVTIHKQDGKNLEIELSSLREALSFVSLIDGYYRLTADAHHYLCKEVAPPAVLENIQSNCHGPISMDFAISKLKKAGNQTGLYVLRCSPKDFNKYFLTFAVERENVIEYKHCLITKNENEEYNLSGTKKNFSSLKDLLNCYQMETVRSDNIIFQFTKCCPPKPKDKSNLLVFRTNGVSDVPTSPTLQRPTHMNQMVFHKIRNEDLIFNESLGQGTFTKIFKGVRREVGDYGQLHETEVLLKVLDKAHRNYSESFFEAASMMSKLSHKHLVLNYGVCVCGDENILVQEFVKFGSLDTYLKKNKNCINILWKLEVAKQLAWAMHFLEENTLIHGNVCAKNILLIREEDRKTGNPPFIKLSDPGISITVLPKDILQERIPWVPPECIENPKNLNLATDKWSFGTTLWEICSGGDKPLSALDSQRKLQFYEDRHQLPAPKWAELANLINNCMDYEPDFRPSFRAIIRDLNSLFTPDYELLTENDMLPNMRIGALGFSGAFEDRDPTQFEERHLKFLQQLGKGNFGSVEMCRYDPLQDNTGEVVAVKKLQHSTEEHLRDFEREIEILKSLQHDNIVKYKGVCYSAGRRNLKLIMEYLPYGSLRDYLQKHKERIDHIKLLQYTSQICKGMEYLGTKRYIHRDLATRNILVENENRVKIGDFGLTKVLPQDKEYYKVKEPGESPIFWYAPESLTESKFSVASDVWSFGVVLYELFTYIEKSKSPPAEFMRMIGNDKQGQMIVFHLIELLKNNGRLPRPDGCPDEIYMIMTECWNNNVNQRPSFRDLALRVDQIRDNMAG

EPHB1 = EPHB1 (UniProt P54762); test: as above
MERTK = MERTK (UniProt Q12866); test: as above
Chain of MERTK (Q12866 whole entry, looked up): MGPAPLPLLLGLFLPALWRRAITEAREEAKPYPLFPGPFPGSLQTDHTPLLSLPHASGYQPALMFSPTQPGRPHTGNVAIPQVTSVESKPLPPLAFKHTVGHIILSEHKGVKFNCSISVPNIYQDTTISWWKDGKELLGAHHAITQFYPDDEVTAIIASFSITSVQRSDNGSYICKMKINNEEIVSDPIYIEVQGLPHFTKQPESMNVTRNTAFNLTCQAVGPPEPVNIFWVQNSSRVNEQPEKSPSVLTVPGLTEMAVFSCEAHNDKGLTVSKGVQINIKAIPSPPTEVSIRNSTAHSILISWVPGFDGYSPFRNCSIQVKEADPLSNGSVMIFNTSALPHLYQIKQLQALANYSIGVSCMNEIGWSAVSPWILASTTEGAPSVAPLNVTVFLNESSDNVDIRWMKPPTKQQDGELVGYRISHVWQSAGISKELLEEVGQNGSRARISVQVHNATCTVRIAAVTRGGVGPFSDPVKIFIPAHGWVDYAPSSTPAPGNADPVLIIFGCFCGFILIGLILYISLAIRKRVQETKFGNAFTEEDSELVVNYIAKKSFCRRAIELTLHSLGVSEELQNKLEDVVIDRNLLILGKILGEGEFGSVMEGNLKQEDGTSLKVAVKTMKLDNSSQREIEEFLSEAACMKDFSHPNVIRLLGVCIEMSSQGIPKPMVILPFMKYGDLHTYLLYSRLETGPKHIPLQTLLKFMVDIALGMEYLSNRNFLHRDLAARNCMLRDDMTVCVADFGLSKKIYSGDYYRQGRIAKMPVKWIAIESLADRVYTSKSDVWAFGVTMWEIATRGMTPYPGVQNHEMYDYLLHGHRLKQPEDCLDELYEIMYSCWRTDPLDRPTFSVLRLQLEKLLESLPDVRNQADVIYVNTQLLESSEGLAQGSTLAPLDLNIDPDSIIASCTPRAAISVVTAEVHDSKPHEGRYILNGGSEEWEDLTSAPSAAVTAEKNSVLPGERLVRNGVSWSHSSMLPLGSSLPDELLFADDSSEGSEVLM

FGFR3 = FGFR3 (UniProt P22607); test: as above
Chain of FGFR3 (P22607 whole entry, looked up): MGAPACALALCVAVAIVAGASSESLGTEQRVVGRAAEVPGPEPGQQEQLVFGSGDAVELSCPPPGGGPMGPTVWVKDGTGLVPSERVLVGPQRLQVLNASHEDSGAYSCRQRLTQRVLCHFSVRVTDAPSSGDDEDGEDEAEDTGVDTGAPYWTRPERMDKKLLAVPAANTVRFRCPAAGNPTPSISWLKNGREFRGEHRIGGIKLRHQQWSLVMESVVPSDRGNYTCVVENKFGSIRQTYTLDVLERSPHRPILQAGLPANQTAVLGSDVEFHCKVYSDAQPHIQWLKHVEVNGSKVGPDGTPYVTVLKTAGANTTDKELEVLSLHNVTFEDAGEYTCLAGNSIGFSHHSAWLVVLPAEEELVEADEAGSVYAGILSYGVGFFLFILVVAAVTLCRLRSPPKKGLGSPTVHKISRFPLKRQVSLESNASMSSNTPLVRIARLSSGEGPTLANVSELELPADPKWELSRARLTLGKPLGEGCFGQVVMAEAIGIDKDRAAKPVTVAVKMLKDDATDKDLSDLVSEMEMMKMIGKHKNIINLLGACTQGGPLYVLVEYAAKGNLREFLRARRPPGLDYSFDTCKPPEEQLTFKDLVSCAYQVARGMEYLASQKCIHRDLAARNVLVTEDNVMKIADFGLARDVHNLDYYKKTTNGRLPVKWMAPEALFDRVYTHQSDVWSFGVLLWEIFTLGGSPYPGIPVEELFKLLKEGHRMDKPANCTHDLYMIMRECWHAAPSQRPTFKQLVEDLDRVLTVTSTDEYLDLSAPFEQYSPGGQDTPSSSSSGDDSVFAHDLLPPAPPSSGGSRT

c-Abl (mouse) = test: as above
FGFR1 = FGFR1 (UniProt P11362); test: as above
Fyn = Fyn (UniProt P06241); test: as above
Chain of Fyn (P06241 whole entry, looked up): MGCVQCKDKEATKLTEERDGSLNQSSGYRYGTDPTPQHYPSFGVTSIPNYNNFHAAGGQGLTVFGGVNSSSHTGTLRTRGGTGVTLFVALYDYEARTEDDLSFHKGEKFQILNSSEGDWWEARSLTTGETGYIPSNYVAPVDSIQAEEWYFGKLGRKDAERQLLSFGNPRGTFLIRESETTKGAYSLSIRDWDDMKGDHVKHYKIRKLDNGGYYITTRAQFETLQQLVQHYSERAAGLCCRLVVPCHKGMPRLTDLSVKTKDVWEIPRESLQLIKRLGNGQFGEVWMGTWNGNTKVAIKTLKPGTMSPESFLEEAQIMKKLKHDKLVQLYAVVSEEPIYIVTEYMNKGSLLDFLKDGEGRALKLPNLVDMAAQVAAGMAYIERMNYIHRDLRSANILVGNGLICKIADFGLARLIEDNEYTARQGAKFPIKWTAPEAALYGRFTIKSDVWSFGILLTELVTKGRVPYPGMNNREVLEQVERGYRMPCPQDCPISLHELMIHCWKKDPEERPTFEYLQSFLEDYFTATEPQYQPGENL

c-Src = test: as above
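Wherever SH2 binding enrichment of the phosphorylated peptide, bacterial display is given: peptide library displayed on the E. coli surface as eCPX fusions, selected cells deep-sequenced, score is each peptide's frequency after selection divided by its frequency in the input.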
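Wherever phosphorylation enrichment, bacterial display is given: 11-residue human phosphosite peptides and single-mutation variants displayed on the E. coli surface, counted by deep sequencing, each peptide's frequency after selection divided by its frequency in the unselected input library; frequency after pTyr selection over input frequency; kinase dosed for 20-30% of maximal phosphorylation in three min.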

| SH2 binding enrichment (SHP2-C SH2) | SH2 binding enrichment (Grb2 SH2) | SH2 binding enrichment (c-Src SH2) | Sequence | phosphorylation enrichment (Fes) | phosphorylation enrichment (Fer (mouse)) | phosphorylation enrichment (AncSZ) | phosphorylation enrichment (Hck) | phosphorylation enrichment (EPHB2) | phosphorylation enrichment (Jak2) | phosphorylation enrichment (EPHB1) | phosphorylation enrichment (MERTK) | phosphorylation enrichment (FGFR3) | phosphorylation enrichment (c-Abl (mouse)) | phosphorylation enrichment (FGFR1) | phosphorylation enrichment (Fyn) | phosphorylation enrichment (c-Src) |
| --- | --- | --- | --- | --- | --- | --- | --- | --- | --- | --- | --- | --- | --- | --- | --- | --- |
| 0.737 | 1.09 | 0.633 | FTRNFYVWAVL [CYBA_Y88_R90W_YF] | 1.42 | 0.466 | 1.25 | 0.473 | 0.383 | 1.31 | 0.573 | 0.454 | 0.756 | 1.61 | 0.498 | 0.427 | 0.508 |
| 0.821 | 1.01 | 0.629 | TQTPPYVKKHP [LARP1B_Y457] | 0.624 | 0.439 | 0.677 | 0.357 | 0.39 | 0.593 | 0.458 | 0.466 | 0.521 | 0.514 | 0.34 | 0.459 | 0.488 |
| 0.606 | 1.16 | 0.537 | RDGDRYFKGIV [DCX_Y64_N60D] | 1.1 | 0.316 | 0.427 | 0.437 | 0.427 | 0.609 | 0.343 | 0.374 | 0.491 | 0.485 | 0.574 | 0.308 | 0.382 |
| 1.02 | 1.16 | 0.81 | KLLLKYSFHDA [RNF213_Y4141_V4146A] | 1.3 | 0.476 | 1.05 | 0.418 | 0.615 | 0.993 | 0.616 | 0.39 | 0.672 | 0.616 | 0.484 | 0.367 | 0.385 |
| 0.727 | 0.818 | 0.538 | FPDFVYKCIKA [DPYSL2_Y479_R481C] | 1.39 | 0.533 | 1.35 | 0.563 | 0.613 | 1.44 | 0.691 | 0.446 | 0.788 | 0.95 | 0.616 | 0.51 | 0.595 |
| 0.738 | 0.827 | 0.533 | EPTPSYEVGQR [TSC2_Y1788_G1787S] | 0.895 | 0.408 | 0.726 | 0.486 | 0.426 | 0.686 | 0.443 | 0.383 | 0.581 | 0.627 | 0.462 | 0.427 | 0.428 |
| 1.12 | 1.23 | 0.611 | RRNTPYSQTMK [TET2_Y819_S817T] | 0.626 | 0.512 | 0.55 | 0.367 | 0.365 | 0.708 | 0.252 | 0.503 | 0.431 | 0.422 | 0.273 | 0.428 | 0.44 |
| 0.618 | 0.739 | 1.02 | DVCKNYAEAKD [ALB_Y343] | 1.19 | 0.495 | 1.07 | 0.571 | 0.561 | 1.14 | 0.541 | 0.448 | 0.702 | 0.804 | 0.569 | 0.509 | 0.55 |
| 0.595 | 0.833 | 5.84 | GNYSGYDDAWD [POLR1C_Y36] | 1.32 | 0.742 | 1.62 | 0.578 | 5.87 | 1.29 | 6.73 | 0.637 | 0.931 | 0.964 | 0.723 | 0.597 | 0.586 |
| 5.85 | 0.925 | 1.26 | PANTVYSTVEI [SLAMF7_Y304] | 2.16 | 23.3 | 1.59 | 9.13 | 1.83 | 1.47 | 2.2 | 7.46 | 1.29 | 6.76 | 1.43 | 10.2 | 7.87 |
| 0.504 | 0.754 | 0.404 | NELTFYCFKKD [CD59_Y87_C89Y_YF] | 1.22 | 0.591 | 0.96 | 0.448 | 0.492 | 1.12 | 0.541 | 0.381 | 0.614 | 0.758 | 0.456 | 0.412 | 0.35 |
| 0.79 | 0.944 | 0.744 | EEESCYILHSS [PATJ_Y783] | 1.35 | 0.926 | 1.63 | 0.57 | 0.625 | 1.31 | 0.637 | 0.484 | 0.853 | 0.892 | 0.621 | 0.659 | 0.819 |
| 0.601 | 0.957 | 0.455 | SARFHYLMAEK [LDHB_Y173_R172H] | 0.661 | 0.473 | 0.666 | 0.455 | 0.403 | 0.455 | 0.463 | 0.499 | 0.751 | 0.372 | 0.445 | 0.564 | 0.403 |
| 0.549 | 0.782 | 0.513 | AGARMYGVLPW [PLP1_Y207_D203G] | 0.75 | 0.447 | 0.67 | 5.5 | 0.724 | 0.55 | 0.542 | 0.842 | 0.495 | 0.667 | 0.489 | 4.8 | 3.6 |
| 0.734 | 0.737 | 0.401 | QEMMEYRRQIQ [DES_Y324_H326R] | 0.92 | 0.644 | 0.878 | 0.355 | 0.601 | 1.18 | 0.523 | 0.455 | 0.607 | 0.428 | 0.424 | 0.491 | 0.563 |
| 0.942 | 1.06 | 0.719 | DAHFTYSRFPW [LY75_Y888_D884A_YF] | 1.09 | 0.499 | 1.05 | 5.79 | 3.63 | 1.29 | 2.72 | 3.89 | 0.736 | 1 | 0.748 | 3.13 | 5.62 |
| 2.71 | 0.883 | 0.725 | SNNYIYTTLGV [FAM83B_Y639_K640T] | 1.1 | 6.62 | 1.07 | 7.83 | 4.29 | 1.28 | 7.5 | 8.17 | 4.56 | 2.88 | 6.21 | 8.37 | 5.7 |
| 0.628 | 1.19 | 0.521 | EAEPFYRSLRD [NPHS1_Y1139_YF] | 1.18 | 0.451 | 0.792 | 0.644 | 0.545 | 0.893 | 0.461 | 0.539 | 0.707 | 0.743 | 0.536 | 0.433 | 0.53 |
| 0.492 | 0.847 | 0.447 | ERDTVYSSSGV [NELL2_Y350_N347D] | 0.883 | 0.451 | 0.711 | 1.5 | 0.52 | 0.601 | 0.435 | 0.42 | 0.584 | 0.617 | 0.502 | 1.78 | 1.79 |
| 0.814 | 0.816 | 0.721 | VQVAFYTMMMN [SPATA17_Y84_YF] | 1.51 | 1.81 | 1.63 | 0.769 | 1.15 | 1.6 | 1.3 | 3.02 | 1.99 | 1.03 | 1.84 | 0.652 | 0.956 |
| 0.827 | 1.01 | 0.684 | LKGQVYILGWE [ASS1_Y359_R363W] | 1.4 | 0.642 | 1.14 | 0.508 | 0.57 | 1.14 | 0.655 | 0.428 | 0.81 | 0.804 | 0.544 | 0.575 | 0.575 |
| 0.999 | 1.31 | 0.892 | FPKVRYHWLVL [APTX_Y214_A212V_YF] | 1.21 | 0.529 | 0.994 | 0.425 | 0.672 | 1.18 | 0.81 | 0.461 | 0.631 | 0.978 | 0.428 | 0.42 | 0.513 |
| 0.882 | 0.881 | 0.48 | TYGVAYRAKDK [CDK11B_Y453_V452A] | 0.807 | 0.38 | 0.712 | 1.15 | 0.592 | 0.578 | 0.357 | 0.621 | 0.537 | 0.567 | 0.791 | 0.812 | 0.829 |
| 0.902 | 0.69 | 0.803 | QNKEDYAGLKE [GSTO1_Y139] | 1.6 | 2.22 | 1.34 | 0.82 | 1.29 | 1.24 | 0.494 | 1.09 | 1.73 | 1.37 | 0.893 | 0.919 | 1.01 |
| 0.804 | 0.885 | 0.379 | FVSAAYVKKLD [SPTAN1_Y1020_P1017S] | 0.65 | 0.365 | 0.663 | 0.374 | 0.618 | 0.403 | 0.414 | 0.337 | 0.455 | 0.511 | 0.421 | 0.365 | 0.382 |
| 0.834 | 0.993 | 0.605 | RHIEKYVDQGK [IRAK3_Y61] | 0.833 | 0.593 | 0.771 | 0.74 | 0.318 | 0.857 | 0.577 | 0.59 | 0.633 | 0.783 | 0.512 | 0.533 | 0.687 |
| 0.705 | 0.896 | 1.06 | SARSAYQEAID [SFN_Y151_M155I] | 0.994 | 0.395 | 1.02 | 0.523 | 0.405 | 0.875 | 0.461 | 0.471 | 0.685 | 0.83 | 0.573 | 0.434 | 0.516 |
| 1 | 0.848 | 0.626 | QLLIKYPPEEV [ZZZ3_Y670] | 1.62 | 0.473 | 1.25 | 0.566 | 0.816 | 1.39 | 0.898 | 0.858 | 0.95 | 1.25 | 0.811 | 0.7 | 0.604 |

| Sequence | SH2 binding enrichment (SHP2-C SH2) | SH2 binding enrichment (Grb2 SH2) | SH2 binding enrichment (c-Src SH2) | phosphorylation enrichment (Fes) | phosphorylation enrichment (Fer (mouse)) | phosphorylation enrichment (AncSZ) | phosphorylation enrichment (Hck) | phosphorylation enrichment (EPHB2) | phosphorylation enrichment (Jak2) | phosphorylation enrichment (EPHB1) | phosphorylation enrichment (MERTK) | phosphorylation enrichment (FGFR3) | phosphorylation enrichment (c-Abl (mouse)) | phosphorylation enrichment (FGFR1) | phosphorylation enrichment (Fyn) | phosphorylation enrichment (c-Src) |
| --- | --- | --- | --- | --- | --- | --- | --- | --- | --- | --- | --- | --- | --- | --- | --- | --- |
| SIKGKYVTALY [KCNH2_Y611_D609G] | 0.776 | 0.826 | 0.472 | 0.552 | 0.329 | 0.498 | 0.465 | 0.374 | 0.431 | 0.366 | 0.358 | 0.357 | 0.517 | 0.367 | 0.432 | 0.318 |
